The text below walks through data of patent US20240092919A1.

Changes are numbered by the printed parent chain. Where only a bound is given, the exact number is not on record here.

B1: T017000676 (bispecific antibody)
chain: DVQLVESGGGLVQAGGSLRLSCAASGITSKINDMGWYRQTPGNYREWVASITATGTTNYRDSVKGRFTISRDNAKSTVYLQMNSLKPEDTTVYYCNTFPPISNFWGQGTLVTVSSGGGGSGGGGSGGGGSGGGGSGGGGSGGGGSGGGGSEVQLVESGGGLVQAGGPLRLSCAASGRTFSSYVMGWFRQAPGKEREFVAAIYWSNGKTQYTDSVKGRFTISGDNAKNTVYLQMNSLNPEDTAVYYCVADKDETGFRTLPIAYDYWGQGTLVTVSSGGGGSGGGGSGGGGSGGGGSGGGGSGGGGSGGGGSEVQLVESGGGVVQPGGSLRLSCVASGYVHKINFYGWYRQAPGKEREKVAHISIGDQTDYADSAKGRFTISRDESKNTVYLQMNSLRPEDTALYYCRALSRIWPYDYWGQGTLVTVSSA
B2: T017000139 (bispecific antibody)
chain: DVQLVESGGGLVQPGGSLRLSCVASGDVHKINFLGWYRQAPGKEREKVAHISIGDQTDYADSAKGRFTISRDESKNMVYLQMNSLKPEDTAVYFCRAFSRIYPYDYWGQGTLVTVSSGGGGSGGGGSGGGGSGGGGSGGGGSGGGGSGGGGSEVQLVESGGGLVQAGGPLRLSCAASGRTFSSYVMGWFRQAPGKEREFVAAIYWSNGKTQYTDSVKGRFTISGDNAKNTVYLQMNSLNPEDTAVYYCVADKDETGFRTLPIAYDYWGQGTLVTVSSGGGGSGGGGSGGGGSGGGGSGGGGSGGGGSGGGGSEVQLVESGGGLVQAGGSLRLSCAASGITSKINDMGWYRQTPGNYREWVASITATGTTNYRDSVKGRFTISRDNAKSTVYLQMNSLKPEDTTVYYCNTFPPISNFWGQGTLVTVSSA
B3: T017000670 (bispecific antibody)
chain: B2 chain with L11V, D27Y, L34Y, M77T, K86R, V92L, F94Y, F98L, Y102W
B4: T017000671 (bispecific antibody)
chain: DVQLVESGGGLVQAGGSLRLSCAASGITSKINDMGWYRQTPGNYREWVASITATGTTNYRDSVKGRFTISRDNAKSTVYLQMNSLKPEDTTVYYCNTFPPISNFWGQGTLVTVSSGGGGSGGGGSGGGGSGGGGSGGGGSGGGGSGGGGSEVQLVESGGGVVQPGGSLRLSCVASGYVHKINFYGWYRQAPGKEREKVAHISIGDQTDYADSAKGRFTISRDESKNTVYLQMNSLRPEDTALYYCRALSRIWPYDYWGQGTLVTVSSGGGGSGGGGSGGGGSGGGGSGGGGSGGGGSGGGGSEVQLVESGGGLVQAGGPLRLSCAASGRTFSSYVMGWFRQAPGKEREFVAAIYWSNGKTQYTDSVKGRFTISGDNAKNTVYLQMNSLNPEDTAVYYCVADKDETGFRTLPIAYDYWGQGTLVTVSSA
B5: T017000675 (bispecific antibody)
chain: DVQLVESGGGLVQAGGPLRLSCAASGRTFSSYVMGWFRQAPGKEREFVAAIYWSNGKTQYTDSVKGRFTISGDNAKNTVYLQMNSLNPEDTAVYYCVADKDETGFRTLPIAYDYWGQGTLVTVSSGGGGSGGGGSGGGGSGGGGSGGGGSGGGGSGGGGSEVQLVESGGGLVQAGGSLRLSCAASGITSKINDMGWYRQTPGNYREWVASITATGTTNYRDSVKGRFTISRDNAKSTVYLQMNSLKPEDTTVYYCNTFPPISNFWGQGTLVTVSSGGGGSGGGGSGGGGSGGGGSGGGGSGGGGSGGGGSEVQLVESGGGVVQPGGSLRLSCVASGYVHKINFYGWYRQAPGKEREKVAHISIGDQTDYADSAKGRFTISRDESKNTVYLQMNSLRPEDTALYYCRALSRIWPYDYWGQGTLVTVSSA
B6: T017000677 (bispecific antibody)
chain: DVQLVESGGGLVQAGGPLRLSCAASGRTFSSYVMGWFRQAPGKEREFVAAIYWSNGKTQYTDSVKGRFTISGDNAKNTVYLQMNSLNPEDTAVYYCVADKDETGFRTLPIAYDYWGQGTLVTVSSGGGGSGGGGSGGGGSGGGGSGGGGSGGGGSGGGGSEVQLVESGGGVVQPGGSLRLSCVASGYVHKINFYGWYRQAPGKEREKVAHISIGDQTDYADSAKGRFTISRDESKNTVYLQMNSLRPEDTALYYCRALSRIWPYDYWGQGTLVTVSSGGGGSGGGGSGGGGSGGGGSGGGGSGGGGSGGGGSEVQLVESGGGLVQAGGSLRLSCAASGITSKINDMGWYRQTPGNYREWVASITATGTTNYRDSVKGRFTISRDNAKSTVYLQMNSLKPEDTTVYYCNTFPPISNFWGQGTLVTVSSA
B7: A022600412 (protein)
chain: DVQLVESGGGVVQPGGSLRLSCVASGYVHKINFYGWYRQAPGKEREKVAHISIGDQTDYADSAKGRFTISRDESKNTVYLQMNSLRPEDTAAYYCRALSRIWPYDYWGQGTLVTVSSGGGGSEVQLVESGGGVVQPGGSLRLSCAASGFTFSSFAMTWVRRPPGKGLEWVATITNAGVTSYADSVKGRFTISRDNAKNTLYLQMNSLRPEDTALYICANARRTGPRAPTDIGSYRGQGTLVTVSSGGGGSGGGGSGGGGSGGGGSEVQLVESGGGVVQPGGSLRLSCAASGFTFRSFGMSWVRQAPGKGPEWVSSISGSGSDTLYADSVKGRFTISRDNSKNTLYLQMNSLRPEDTALYYCTIGGSLSRSSQGTLVTVSSA

Sequence of Human T cell receptor on human primary T cells (human) (P01848 whole entry, chain 1 of 2): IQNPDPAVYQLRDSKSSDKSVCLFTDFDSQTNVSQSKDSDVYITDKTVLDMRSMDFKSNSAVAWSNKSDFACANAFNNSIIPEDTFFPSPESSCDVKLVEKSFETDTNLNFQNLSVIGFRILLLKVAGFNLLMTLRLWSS
Sequence of Human T cell receptor on human primary T cells (human) (P01850 whole entry, chain 2 of 2, further chain): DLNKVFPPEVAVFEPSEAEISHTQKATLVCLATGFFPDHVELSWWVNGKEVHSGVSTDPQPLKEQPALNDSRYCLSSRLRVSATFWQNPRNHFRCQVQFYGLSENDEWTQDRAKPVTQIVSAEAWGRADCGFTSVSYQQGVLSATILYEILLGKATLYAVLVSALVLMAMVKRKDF

One test concerns the target Human T cell receptor on human primary T cells (human) (UniProt P01848). As to the kind of experiment: cell-based or functional assay.
In turn, B1 returned a % lysis, KG-1a, Human T cell mediated killing of 41%; a % lysis, MOLM-13, Human T cell mediated killing of 25%; an Average EC50 (M), KG-1a, Human T cell mediated killing of 8.2e-11 M; an Average EC50 (M), MOLM-13, Human T cell mediated killing of 2.3e-11 M. This molecule also gave an IC50 (M), xCELLigence cell killing, Human T cell mediated killing, E:T 15:1 of 1.1e-10 M.
Consider B2, for which the % lysis, KG-1a, Human T cell mediated killing turned out to be 51%; the % lysis, MOLM-13, Human T cell mediated killing stood at 25%; the Average EC50 (M), KG-1a, Human T cell mediated killing is 7.8e-11 M; the Average EC50 (M), MOLM-13, Human T cell mediated killing is 2.5e-11 M. This molecule showed an IC50 (M), xCELLigence cell killing, Human T cell mediated killing, E:T 15:1 of 4.7e-11 M.
B3 displayed a % lysis, KG-1a, Human T cell mediated killing of 52%; a % lysis, MOLM-13, Human T cell mediated killing of 26%; an Average EC50 (M), KG-1a, Human T cell mediated killing of 7.4e-11 M; an Average EC50 (M), MOLM-13, Human T cell mediated killing of 2.5e-11 M. The molecule also gave an IC50 (M), xCELLigence cell killing, Human T cell mediated killing, E:T 15:1 of 9.4e-11 M.
Turning to B4, the % lysis, KG-1a, Human T cell mediated killing is 21%; the % lysis, MOLM-13, Human T cell mediated killing was 14%; the Average EC50 (M), KG-1a, Human T cell mediated killing stood at 1.5e-10 M; the Average EC50 (M), MOLM-13, Human T cell mediated killing worked out at 1.5e-10 M.
Molecule B5 had a % lysis, KG-1a, Human T cell mediated killing of 46%; a % lysis, MOLM-13, Human T cell mediated killing of 23%; an Average EC50 (M), KG-1a, Human T cell mediated killing of 9.2e-11 M; an Average EC50 (M), MOLM-13, Human T cell mediated killing of 3.4e-11 M. The same molecule yielded an IC50 (M), xCELLigence cell killing, Human T cell mediated killing, E:T 15:1 of 5e-11 M.
The molecule B6 returned a % lysis, KG-1a, Human T cell mediated killing of 65%; a % lysis, MOLM-13, Human T cell mediated killing of 20%; an Average EC50 (M), KG-1a, Human T cell mediated killing of 1.5e-11 M; an Average EC50 (M), MOLM-13, Human T cell mediated killing of 1.2e-11 M.

The next test concerns the target Cynomolgus T cell receptor on cynomolgus primary T cells (cynomolgus monkey). As to the kind of experiment: cell-based or functional assay.
In turn, B1 came in with a % lysis, KG-1a, Cynomolgus T cell mediated killing of 28%; a % lysis, MOLM-13, Cynomolgus T cell mediated killing of 26%; an Average EC50 (M), KG-1a, Cynomolgus T cell mediated killing of 1.4e-11 M; an Average EC50 (M), MOLM-13, Cynomolgus T cell mediated killing of 2e-11 M.
As for B2, the % lysis, KG-1a, Cynomolgus T cell mediated killing was 26%; the % lysis, MOLM-13, Cynomolgus T cell mediated killing amounted to 40%; the Average EC50 (M), KG-1a, Cynomolgus T cell mediated killing was 1.2e-11 M; the Average EC50 (M), MOLM-13, Cynomolgus T cell mediated killing came out at 7.2e-11 M.
The matching figures for B3: 30%, 34%, 8.1e-12 M and 2e-11 M.
B4 yielded a % lysis, MOLM-13, Cynomolgus T cell mediated killing of 46% and an Average EC50 (M), MOLM-13, Cynomolgus T cell mediated killing of 2.1e-11 M.
For the molecule B5, the % lysis, KG-1a, Cynomolgus T cell mediated killing came to 26%; the % lysis, MOLM-13, Cynomolgus T cell mediated killing worked out at 31%; the Average EC50 (M), KG-1a, Cynomolgus T cell mediated killing came out at 2.6e-11 M; the Average EC50 (M), MOLM-13, Cynomolgus T cell mediated killing was found to be 6.9e-11 M.
Take B6: the % lysis, MOLM-13, Cynomolgus T cell mediated killing is 54% and the Average EC50 (M), MOLM-13, Cynomolgus T cell mediated killing came to 5.1e-12 M.

The target in the next test is human GPC3 on cells (human) (UniProt P51654). As to the kind of experiment: cell-based or functional assay.
Consider B7, for which the IC50 (M) BxPC-3, xCELLigence human TDC assay, E:T 15:1, 60 h was more than 1e-07 M; the IC50 (M) HepG2, xCELLigence human TDC assay, E:T 15:1, 60 h is 3.82e-10 M; the IC50 (M) Huh-7, xCELLigence human TDC assay, E:T 15:1, 60 h worked out at 1.53e-09 M; the IC50 (M) NCI-H661, xCELLigence human TDC assay, E:T 15:1, 60 h came out at 6.18e-10 M.
